Experimental data as given in the domain aggregation screens of Martell et al. (2025).

assay: soluble fraction after stress (log2 fold change); higher = more stays soluble; pooled small domains, quantitative proteomics; settings: stress: pH 4
Method in brief: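 How much of each domain stays soluble after acid stress, expressed as a fold change, is used to gauge aggregation propensity. Pooled custom libraries of small domains underwent pH 4 stress before high-throughput quantitative proteomics. A higher log2 value means more of the domain stayed soluble.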

Sequence	soluble fraction (log2)
HMSLSNMIGKNIQWTHVTKTKDAEGNPKTNSETFAGNVRGVKVLNGKPMVVAQDAKGKLHEVEVSEIEAIA	0.22
HMNPLLSAYLAEVERGLQGLTAGRRRLVLRELEAHLLDEAEARGLLTEEDMRALLMEKEPPERLAQEIAQ	-0.925
HMEEDPVISQAQRQALFKLAHDHFGQEEGNKVILRLIGEHGLRSTTNMTASVYKTVTDALIQVIESMVEG	-0.444
HMGKNISEEDMLGYFKKIDLDYDAETKEVIAPTFRHDLFRLADLAEEVARFFGYDNIPTTLPSGEAT	-0.488
HMAQVDAVQQVLQAFPALRSGQSQHLSQVVAALRQRGILTVGTKTTAWFAQWASVFQLLPLQVPNRIRYQS	0.2
HMSSYETVTLNGQRYFKYKVKSGEGLYAISRMFSTPIAEIIRHNPSSNAGLKNGQELLIPVN	-0.0689
HMPYSPTPGSAPARLIAHLQEHGDSVNRTAIAELLQVDRKNVHNYLARAVTHGLLLRHGGGAYSLP	0.207
HMSGAQIQQLLESRAPQPGMNPDMIVRRKTYMNNVFNALKGALLRVANGSSPEEVKTEVDAAIQVDPDKL	-0.151
HMQLKFTDLRKEILRMIWEGHGPQKAYDLLNKLQQTNPSAKPATVYRALDFLIGNGFIHKVASLNAFVG	-0.942
HMGARWPIQDRPLTATEAAAVRRMYAGGLPHGRSKNSVITEVWGDLSNKPKRLDWLNQALEGGA	0.357
HMNDTVGMNIRRLRKERGMTQGDLADKAGIQRETISKYESNKLTPPSYNLESIEKALKVPAGTLAQ	0.22
HMNQEFRMPNAIKGVELSEENKQQLTQGEKVFLEGMTSAKGSLFDAYVYIDQEKKTLAFDFPEK	-0.792
HMKELTELIEKIKLRRLELGLSYQELSDLTGINKSTLQRYETGFIKKVPINQVQIIAKALNVTPGYLMG	-0.718
HMGKTTQEIEERSSTSTLTLTQTPKEIISVQGKKSDQSFFTNIQYTQNGKVIVPKQTGIYDTIKVVFTVSL	-0.256
HMSSYMQMQLERLESLLQKNDLTDSDKYDIRQLVEDLDKVPESVSPNLVGAYMTIKNRYASVLKTVL	-0.835
HMFELVKISENIPIRDLAETLKTTPNEIIKELMVFGVLANINQTLNFDLASKVADKLGFEVELL	-0.363
HMAGIPIHMSQLKQIILLLSQGYPIKGIARETGVSRNTIKGYLQTLTSQDLNVTDALKLENIQLEYLLRSP	-0.239
HMEELPVLHLKHVVVEGESLWKLAEQYLNDGTRWQEIYMLNRENISNPDLIREGQELNIQFLQGE	-1.05
HMGLVVIGTEAGYPAEKAGILAGDRIRKLNGAAVPDYDTFLTALAARKGEPSAIELERDGKTLEVTVSPL	-0.21

Sequence	soluble fraction (log2)
HMVYFAKNIRHLRRLRGMSQELLAAELDITRARLGAYEESRSEPPLHLLIKISEFFKLPVDIIVKNDLTKS	-0.961
HMEHVVFEVTESGELENNTAVKHVLNSFNNKSLNLAIDDFGTGYSNLRYIRDMMFGIIKIDRLFIKDINES	0.158
HMPPENVSVRREQIAEDKKTVYNVWVTKGNKTVLYSKVVYAWGGVYFFRDLNTSISENMYKQADAGLVN	-0.0222
HMTVSADQTTADAVIKLIDAIGTVSKNSGSAISAARSGYDALTDAQKKLVTNYNKLTQAEQVFSSLS	-0.165
HMGLPAWVPQNYIDRVTAIYDYSADKDDELTFNEGSTIFVLKKNDDGWWEGVMDGVTGLFPGNYVEAT	-1.63
HMGKLYRDRYAPLEPDGARAGDRVFIISLEKEGTLERIDLPRKTATVLLGSSIRSTFPLDDLYQPRG	-0.163
HMSFSSLSNDILSEIQKDNNITYDELSEKLQKDRATIYRNMKKLVENGLLKRVGGRKSGHWEIIE	≥ 0.43
HMVPPELEFLQSLMKIEDISELTAAIENNRDAVTDDFKEMLETVIENISGAPDTDPKLLERLKTIRTVLA	-0.631
HMTKGVWHTVKKGENLYRISLYYEVPQQEIKKANKIETENIVVGQKLFIPNTTKKSPIFALTP	-0.0478
HMTSLAGIERFLASGAIAGVGEAMAHRLVQKFGKETLEIIEKKPSRLTEVAGVGKKTAAKIHASYMEK	0.0893
HMSKHATLLEALAELTVKLKPHTQLPSERQLSEDFGVSRMTLRRAIDVMQSRGYIYTVPSKGLYVSEP	-0.156
HMDSEKVLTNLKEELVLQLSNIEPYGYVPSQYWYSKVQRVQSVQELGKYVDGDLEAFVMKYAEDWESQK	-0.951
HMKFLYQQVYQDIKDKITSAQYQFGDLLPSEREIGEEYHVDRTTVRKAFSLLVDEGLVEKRAGKGSVVIS	-0.52
HMSVPEDLYFRELEVEGNKVRISGIASTNNRVSALMRNFDQSEWFRDPSLIKVESKSPGVNEFEIVMTRI	-0.761
HMGPAVGAIRVEGNKRVEPETVRTYLTFNVGDPYDLAKVDESLKALFATGLFQDVRIRREGNTVVIVVVEN	-1.07
HMFMPGTIIKQFRELRNYSQDYVSRKMGISQNAYSKIENNITQLTVTHVKQLSSILDVPIVELLR	-0.366
HMSNMESLIGREATVIEMIPAEDVGRVKIDGDEWQAVLAREDDNEPRRDIQVGEKVIIVSYDSIILTVKTK	-1.02
HMPDGTATATASVNVRSGASTLSPVLGVLRVGESIGVTGQANGGWVPVNYNGRAGYVYAAYLSFD	-0.0669
